Source: publication PMC4450493, “Binding of undamaged double stranded DNA to vaccinia virus uracil-DNA Glycosylase”

Target: D4 (vaccinia virus uracil-DNA glycosylase, tfD4) (Vaccinia virus, UniProt P04303 1-218)
Assay: X-ray crystallography (2.89 A); undamaged DNA without uracil; glycerol in active sites; no A20
Details: protein: recombinant; tags: His6 tag cleaved; three vector-encoded residues GSH remain at N-terminus; chain copies: 2; blunt; palindromic, two copies of the same strand

B1: self-complementary 12mer dsDNA (dsDNA)
DNA 1: GCAAACGTTTGC
DNA 2: GCAAACGTTTGC
- binding result: binds
